The nature of this series: yeast display, Sf9 membrane polyspecificity reagent, FACS + sequencing; frameworks hold sequencing errors. The procedure, abridged: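 Genes from sorted yeast were amplified by colony PCR, read by MiSeq 2 × 250 sequencing and filtered on CDR length. These cells carried a synthetic nanobody library in Saccharomyces cerevisiae BJ5465 and were sorted by FACS into low and high (top ~1%) gates on anti-HA and streptavidin fluorescence. Polyreactivity is labelled according to the gate of origin.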
In the case of “QVQLVESGGGLVQAGGSLRLSCAASGRTFFPYAMGWYRQAPGKERELVATIRYRGGSTSYADSVKGRFTISRDNAKNTVYLQMNSLKPEDTAVYYCAARLQRTPRVYSSYFEYDYWGHGTQVTVSS”, the “polyreactivity (PSR sort gate)” value is recorded as “low polyreactivity”.
Regarding “QVQLVESGGGLVQAGGSLRLSCAASGRTFFRNAMGWYRQAPGKERELVAAISSSGGSTYADSVKGRFTISRDNAKNTVYLQMNSLKPEVTAVYYCATRFQYTRTWYSRKYDYWGQGTQVTVSS”, the “polyreactivity (PSR sort gate)” value is on record as “high polyreactivity”.
The entry for “QVQLVESGGGLVQAGGSLRLSCAASGRTFFRYAMGWYRQAPGKERELVASISGGITNYADSVKGRFTISRDNAQNTVYLQMNSLKPEDTAVYYCAADDYPYSYSSQFQYTGYEYWGQGTQVTVSS” is “low polyreactivity”; for “QVQLVESGGGLVQAGGSLRLSCAASGRTFFRYVMGWYRQAPGKERELVAAISTRGGSTYYADSVKGRFTISRDNAKNTVYLQMNSLKPEDTAVYYCAARFKVRDYSYNYWGQGTQVTVSS” it is “high polyreactivity”; for “QVQLVESGGGLVQAGGSLRLSCAASGRTFFVNAMGWYRQAPGKERELVAGISIGGRTSYADSVKGRFTISRDNAKNTVYLQMNSLKPEDTAVYYCATSYFPWSRKRYGYWGQGTQVTVSS” it is “high polyreactivity”.
The same measure for “QVQLVESGGGLVQAGGSLRLSCAASGRTFFVNAMGWYRQAPGKERELVAVISTSGGSTSYADSVKGRFTISRDNPKYTVYFQMNSLKPEDTAVYYCAALVLGPYVSSFVYQQDDSWGLGTQVTVSS”: “high polyreactivity”; for “QVQLVESGGGLVQAGGSLRLSCAASGRTFFWYAMGWYRQAPGKEREFVADINSRGTSTYADSVKGRFTISRDNAKNTVYLQMNSLKPDDTAVYYCAAYRGHLKRYYYWGQGTQVTVSS”: “high polyreactivity”.
The same measure for “QVQLVESGGGLVQAGGSLRLSCAASGRTFFWYAMGWYRQAPGKERELVAAISSSTRTKYADSVKGRFTISRDNAKNTVYLQMNSLKPEDTAVYYCNAKGWVWPFPSYYPYDSWGQGTQVTVSS”: “high polyreactivity”; for “QVQLVESGGGLVQAGGSLRLSCAASGRTFFYNAMGWYRQAPGKERELVATITWTGDSTYADSVKGRFTISRDNAKNTVYLQMNSLKPEDTAVYYCAAGKPVILTGDYDYWGQGTQVTVSS”: “low polyreactivity”.
Consider “QVQLVESGGGLVQAGGSLRLSCAASGRTFFYNGMVWYIQAPGKQRELVAAISGSGSRTYYADSVKGRFTISRDNAKNTVYLQMNSLKPEDTAVYYCAATRVISHYRFDYWGQGTEVTVSS”, for which the “polyreactivity (PSR sort gate)” value is on record as “high polyreactivity”.
The same measure for “QVQLVESGGGLVQAGGSLRLSCAASGRTFFYYAMGSYRQAPGKERELVATITKRGGSTYYADSVKGRFTISRDNAKNTVYLQMNSLKPEDTAVYYCNAAGNPVSRYHYDYWGQGTQVTVSS”: “high polyreactivity”; for “QVQLVESGGGLVQAGGSLRLSCAASGRTFGANDMGWYRQAPGKDSELVAAITYSGGRTNYADSVKGRFTISRDNAKNSVYLQMNSLKPEDTAVYYCAAGGWRDRSRYNYWGQGTQVTVSS”: “high polyreactivity”.
The same measure for “QVQLVESGGGLVQAGGSLRLSCAASGRTFGAYAMGLYRQEPGKETELVAAISKSGGRTYYADSVKGRFTISRDYAKNTVYLLMNSLKPEDTAVYYCNARGFRGEYDYWGEGTQVTVSS”: “high polyreactivity”; for “QVQLVESGGGLVQAGGSLRLSCAASGRTFGAYAMGWYRQAPGKERELVAAISNGGRTYYADSVKGRFTISRDNAKNTVYLQMNSLKPEDTAVYYCNKVRSPWYDSWGQGTQVTVSS”: “high polyreactivity”; for “QVQLVESGGGLVQAGGSLRLSCAASGRTFGAYAMGWYRQAPGKERELVATITVSGGSTYYADSVKGRFTISRDNAMNTVSLQLNSLKPEDTAVYYCATEFYEEYWGQGTQVTVSS”: “low polyreactivity”.
The entry for “QVQLVESGGGLVQAGGSLRLSCAASGRTFGDYAMGWYRQAPGKERELVAAISSSGGRTYYADSVKGRFTISRDNAKNTVYLQMNSLKPEDTAVYYCAAQSKYYQYYSWGQGTQVTVSS” is “high polyreactivity”; for “QVQLVESGGGLVQAGGSLRLSCAASGRTFGEYAMGWYRQAPGKERELVADITNGSRTYYADSVKGRFTISRDNAKNTVYLQMNSLKPEDTAVYYCAADWWKEVDYWGQGTQVTVSS” it is “low polyreactivity”; for “QVQLVESGGGLVQAGGSLRLSCAASGRTFGEYTMGWYRQAPGKERELVAAISSAGRTNYADSVKGRFTISRDNAKNTVYLQMNSLKPEDTAVYYCAADWTDDVPGYDYWGQGTQVTVSS” it is “low polyreactivity”.
On to “QVQLVESGGGLVQAGGSLRLSCAASGRTFGFNAMGWYRQAPGKDRELVASITRGGRTDYADSVKGRFTISRDNAKNTVYLQMNSLKPEDTAVYYCAAQSGWHHTGGMYYWGQGTQVTVSS”, for which the “polyreactivity (PSR sort gate)” value is “high polyreactivity”.
The entry for “QVQLVESGGGLVQAGGSLRLSCAASGRTFGFYGMGWYRQAPGKEREFVAAITRRGGSTYYADSVKGRFTISRDNAKNTVYLQMNRLKPEDTAVYYCAAGYSSRYRGGLDYWGQGTQVTVSS” is “high polyreactivity”; for “QVQLVESGGGLVQAGGSLRLSCAASGRTFGFYTMGCYRQAPGKERELVAAISWRGGSTYYADSVKGRFTISRDNAKNTVYLQMYSLKPEDTAVYYCAVRTNFGKMYYWGQGTQVTVSS” it is “high polyreactivity”.
“QVQLVESGGGLVQAGGSLRLSCAASGRTFGFYTMGWYRQAPGKERELVAGISRGGSTTYADSVKGRFTISRDNAKNTVYLQMNSLKPEDTAVYYCNADRSHYWLPYGVRFDYWGQGTQVTVSS”: the “polyreactivity (PSR sort gate)” value is recorded as “low polyreactivity”.
The entry for “QVQLVESGGGLVQAGGSLRLSCAASGRTFGGNAMGWYRQAPGKERELVAAINSDGGRTYYADSVKARFTISRDNAKNTVYLQMNSLKPEDTAVYYCNRAYRKSYTGYGYDYWGQGTQVTVSS” is “high polyreactivity”; for “QVQLVESGGGLVQAGGSLRLSCAASGRTFGGNAMGWYRQAPGKERQLVASISSSGGRTYYAVSVKGRFTISRDNAKNTVYLQMNSLKPEDTAVYYCAVAWNVRGVGARQRYIYGYWGQGTQVTVSS” it is “high polyreactivity”; for “QVQLVESGGGLVQAGGSLRLSCAASGRTFGGNVMGWYRQAPGKERELVAAITWSGGRTYYADSVKGRFTISRDNAKNTVYLQMNSLKPEDTAVYYCNARNGFTVKKFYYWGQGTQVTVSS” it is “high polyreactivity”.
The entry for “QVQLVESGGGLVQAGGSLRLSCAASGRTFGGYAMGWYRQAPGKERELVADITSSGSTTYYADSVKGRFTISRDNSKNNVYLERYSLKPEDTAVYYCNAEGYSPVLYDYWGQGTQVTVSS” is “low polyreactivity”; for “QVQLVESGGGLVQAGGSLRLSCAASGRTFGGYAMVWYRQAPGKERELVATITKNGGSTYYADSVKGRFTISRDNAKNTVYVQMNSLKPEVTAVYYCATGSRGYKASPQWRDYWGQGTQVTVSS” it is “high polyreactivity”; for “QVQLVESGGGLVQAGGSLRLSCAASGRTFGHNAMGRYRQAPGKEREFVAAITRRGGSTYYADSVKGRFTISRDNAKNTVYLQMNSLKPEDTAVYYCATRDYVNGPGIFNYWGQGTQVTVSS” it is “low polyreactivity”.
The same measure for “QVQLVESGGGLVQAGGSLRLSCAASGRTFGINAMGWYRQAHGKERELVAVISFGDGGTYYADSVKGRFTISRDNAKNTVYLQMNSLKPEDTAVYYCATDYQSTSVWGGHFVINPYDYWGQGTQVTVSS”: “low polyreactivity”; for “QVQLVESGGGLVQAGGSLRLSCAASGRTFGIYAMGWYRQAPGKERELVAAITGRGGSTHYADSVKGRFSISRDNAKNTVYLQMNSLKPEDTAVYYCAADYRYNRGITSNKDYDYWGQGTQVTVSS”: “low polyreactivity”.
Regarding “QVQLVESGGGLVQAGGSLRLSCAASGRTFGKNAMGWYRQAPGKEMEFVAAITSRGGSTYYADSVKGRFTISRDNAKNTVYLQLNSLIPVDTAVYYCYGEYKRPSQRTEHYYWGQGSQVTVSS”, the “polyreactivity (PSR sort gate)” value was “low polyreactivity”.
The same measure for “QVQLVESGGGLVQAGGSLRLSCAASGRTFGKNAMGWYRQAPGKERELVAAISFSGGRTYYADSVKGRFTISRDNANNTVYLQMNSLKPEDTAVYYCAARGSRRGTWYDYWGQGTQVTVSS”: “high polyreactivity”; for “QVQLVESGGGLVQAGGSLRLSCAASGRTFGKNAMGWYRQAPGKERELVAAISWSGGRTYYADSVKGRFTISRDNAKNTVYLQMNSVKPVDTAVYYCATASYRNPSDYWGQGTQVTVSS”: “high polyreactivity”; for “QVQLVESGGGLVQAGGSLRLSCAASGRTFGKYAMGWYRQAPGKERELVATISRSGGSTYYADSVKGRFTISRDNAKNTVYLQMNSLKPEDTAVYYCNAVTSRYIWPPVLDRYHYWGQGTQVTVSS”: “high polyreactivity”.
The entry for “QVQLVESGGGLVQAGGSLRLSCAASGRTFGLNVMGWYRPAPGKDRELVATISGVGSTNYADSVKGRFTISRDNAKNTVYLQMNSLKPEDTAVYYCAAGGTSGQEFGYWGQGTQVTVSS” is “low polyreactivity”; for “QVQLVESGGGLVQAGGSLRLSCAASGRTFGLYSMGWYRQAPGKVRELVASIDWSDDN” it is “low polyreactivity”.
The same measure for “QVQLVESGGGLVQAGGSLRLSCAASGRTFGNYAMGWYRQAPGKDRELVAALSTTGGRTSYADSVKGRFTISRDNAKNTVYLQMNSLKPEDTAVYYCNVYTTSQARRKRIDYDFWGQGTQVTVSS”: “high polyreactivity”; for “QVQLVESGGGLVQAGGSLRLSCAASGRTFGNYVMGWYRQAPGKERELVAAIRSGTNTYYADSVKGRFTISRDNAKNTVYLQMNSLKPEDTAVYYCAAARYTKFDYWGQGTQVTVSS”: “high polyreactivity”.
For the sequence “QVQLVESGGGLVQAGGSLRLSCAASGRTFGPNAMGWYRQAPGKERELVAAIRYSGGSTYYADSVKGRFTISRDNAKNTVYLQMNSLKPEDTAVYYCAADYVSYVGERGTLYVRYDYWGQGTQVTVSS”, the “polyreactivity (PSR sort gate)” value is on record as “high polyreactivity”.
Turning to “QVQLVESGGGLVQAGGSLRLSCAASGRTFGPNAMGWYRQAPGKERELVAAISGSGGSTYYADSVKGRFTISRDNAKNTVYLQMYSLKPEDTAVYYCAARHRQQKLDYWGQGTQVTVSS”, the “polyreactivity (PSR sort gate)” value was “high polyreactivity”.
The entry for “QVQLVESGGGLVQAGGSLRLSCAASGRTFGPYAMGWYIQAPGKERELVAAITWSSGRTYYADSVKGRFTISRDNAKNTVYLQMNSLKPEDTAVYYCNKDRFYRNNYGYGYWGQGTQVTVSS” is “high polyreactivity”.

Source of the values: the nanobody polyreactivity screen of Harvey et al. (2022).
